{
  "source": "paper PMC9889334",
  "about": "(Nature Communications, 2022)",
  "target": "the molecule itself",
  "assay": "SEC-SAXS; purified complexes loaded at 2.55 (CBKP1P2), 0.72 (CBKP1) and 3 mg/ml (CBKP2) on a Bio-SEC3 column; 20 mM Tris pH 8.5, 300 mM NaCl, 5 mM 2-mercaptoethanol, 5% glycerol",
  "data": [
    {"protein": "CBKP1, four-subunit PaKEOPS complex (PaCgi121/PaBud32/PaKae1/PaPcc1) (complex) chain 1: MTPKFKNFKHDNSGQVETYLFEVISKYTMLEIKTKFGKLCIAKVKLASESIERALNLCNDNCQIVSAKCHEEVIFATILAIKAFSSGRNTAKTIKGEILLRLAGVKQIKDAIKIIGARKGENLIIYFGVSDPCSSLKDFISSLGLREEPLKPCDEDEVKRGFERAAIIEAL chain 2: MKLIKQGAEAKIYLAEFSELYFDYPIKVIVKERIKKRYRIPEIDLKLRKERTIREARILRRAKEFGVNVPYVFEVDTKNMIIVMEYIEGERLKELLEKLPMEERLKVCREVGRQIGKLHEAGIVHGDLTTSNMILREGKVYFIDFGLAEFDDTIEAQGVDLHLLKRAMESTHYKWFERGFEEVLKGYIEIRGEDKGREIREKIREIELRGRYRERSWITQ chain 3: MLALGIEGTAHTLGIGIVSEDKVLANVFDTLTTEKGGIHPKEAAEHHARLMKPLLRKALSEAGVSLDDIDVIAFSQGPGLGPALRVVATAARALAVKYRKPIVGVNHCIAHVEITKMFGVKDPVGLYVSGGNTQVLALEGGRYRVFGETLDIGIGNAIDVFARELGLGFPGGPKVEKLAEKGEKYIELPYAVKGMDLSFSGLLTEAIRKYRSGKYRVEDLAYSFQETAFAALVEVTERAVAHTEKDEVVLVGGVAANNRLREMLRIMTEDRGIKFFVPPYDLCRDNGAMIAYTGLRMYKAGISFRLEETIVKQKFRTDEVEIVW chain 4: MKPKRVQGKIVIEFPSEDIAEVVYTSVLYEHVSVPYRRSRVNFRREGRRIVLEIEANDSSAMRGTVNSYLRWIKVALDVLNI", "values": [
      {"measurement": "stoichiometry N", "value": 2}
    ]}
  ]
}
